Here are results for 1 protein from PMC4804749.

The target in this series is His111 (UniProt position 111, …). Kind of series: NMR. To be noted: 288 K.

Consider KTNMKHMAGA [Prion protein fragment PrP(106-115) (Homo sapiens)], for which the pKa entry is given as “∼5”. Where the note is “Free peptide, no copper, 0.3 mM peptide”, this protein showed a pKa of 6.2.

As usually defined, the pKa is the negative logarithm of the acid dissociation constant.
